# Results as given in publication PMC9482650, “Quantitative fragmentomics allow affinity mapping of interactomes” (Nature Communications, 2022).
# T1: APBA2_1, Q99767
# T1 sequence (Q99767 563-664, limits assumed, looked up): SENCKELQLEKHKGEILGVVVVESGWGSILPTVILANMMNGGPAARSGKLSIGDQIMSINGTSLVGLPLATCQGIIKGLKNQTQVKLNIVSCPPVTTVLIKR
# T2: APBA3_1, O96018
# T2 sequence (O96018 389-490, limits assumed, looked up): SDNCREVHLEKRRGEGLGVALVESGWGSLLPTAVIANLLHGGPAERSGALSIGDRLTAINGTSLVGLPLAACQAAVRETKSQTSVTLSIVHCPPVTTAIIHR
# T3: ARHGEF11, O15085
# T3 sequence (O15085 42-136, limits assumed, looked up): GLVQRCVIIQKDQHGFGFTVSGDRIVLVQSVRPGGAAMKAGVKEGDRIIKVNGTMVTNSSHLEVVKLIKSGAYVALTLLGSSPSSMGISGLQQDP
# T4: CARD11, Q9BXL7
# T4 sequence (Q9BXL7 662-765, limits assumed, looked up): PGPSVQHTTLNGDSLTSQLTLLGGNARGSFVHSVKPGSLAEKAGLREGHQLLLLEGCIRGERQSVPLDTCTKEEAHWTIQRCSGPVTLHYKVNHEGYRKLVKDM
# T5: FRMPD1, Q5SYB0
# T5 sequence (Q5SYB0 52-145, limits assumed, looked up): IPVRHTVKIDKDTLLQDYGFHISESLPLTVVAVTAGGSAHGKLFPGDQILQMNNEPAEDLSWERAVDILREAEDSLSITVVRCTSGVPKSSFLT
# T6: HTRA3, P83110
# T6 sequence (P83110 354-453, limits assumed, looked up): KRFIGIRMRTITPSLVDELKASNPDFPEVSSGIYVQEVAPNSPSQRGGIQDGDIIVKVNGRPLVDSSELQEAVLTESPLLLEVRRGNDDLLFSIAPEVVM
# T7: MPP6, Q9NZW5
# T7 sequence (Q9NZW5 125-219, limits assumed, looked up): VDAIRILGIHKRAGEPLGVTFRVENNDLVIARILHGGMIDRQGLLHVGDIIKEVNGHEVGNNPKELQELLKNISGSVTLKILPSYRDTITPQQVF
# T8: MPP7, Q5T2T1
# T8 sequence (Q5T2T1 134-230, limits assumed, looked up): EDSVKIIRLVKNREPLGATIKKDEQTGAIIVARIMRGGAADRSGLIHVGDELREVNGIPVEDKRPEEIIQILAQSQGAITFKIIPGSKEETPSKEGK
# T9: NHERF3_4, Q5T2W1
# T9 sequence (Q5T2W1 373-468, limits assumed, looked up): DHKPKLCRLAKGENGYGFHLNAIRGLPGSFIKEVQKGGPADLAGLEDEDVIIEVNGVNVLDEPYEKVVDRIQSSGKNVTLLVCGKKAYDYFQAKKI
# T10: PDZD7_3, Q9H5P4
# T10 sequence (Q9H5P4 857-944, limits assumed, looked up): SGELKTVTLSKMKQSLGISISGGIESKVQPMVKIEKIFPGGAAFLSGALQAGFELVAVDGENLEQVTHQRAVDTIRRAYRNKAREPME
# T11: RHPN1, Q8TCX5
# T11 sequence (Q8TCX5 508-602, limits assumed, looked up): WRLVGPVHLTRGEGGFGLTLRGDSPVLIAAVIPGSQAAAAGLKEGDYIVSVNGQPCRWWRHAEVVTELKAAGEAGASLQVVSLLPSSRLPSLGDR
# T12: SNTA1, Q13424
# T12 sequence (Q13424 82-180, limits assumed, looked up): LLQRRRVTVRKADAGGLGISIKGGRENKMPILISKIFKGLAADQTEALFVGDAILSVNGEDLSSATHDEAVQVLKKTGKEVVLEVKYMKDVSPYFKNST
# T13: SNTG1, Q9NSN8
# T13 sequence (Q9NSN8 52-150, limits assumed, looked up): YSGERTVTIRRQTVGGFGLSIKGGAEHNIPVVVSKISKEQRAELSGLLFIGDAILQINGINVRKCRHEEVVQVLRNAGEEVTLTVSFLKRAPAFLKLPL
# T14: TJP3_3, O95049
# T14 sequence (O95049 375-456, limits assumed, looked up): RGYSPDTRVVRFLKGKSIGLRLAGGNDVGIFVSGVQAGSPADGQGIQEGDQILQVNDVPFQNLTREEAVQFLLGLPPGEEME
# T15: TX1BP3, O14907
# T15 sequence (O14907 10-122, limits assumed, looked up): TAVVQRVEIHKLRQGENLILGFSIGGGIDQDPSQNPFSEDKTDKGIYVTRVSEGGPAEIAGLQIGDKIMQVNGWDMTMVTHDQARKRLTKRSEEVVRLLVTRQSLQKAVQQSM
# Target: T1, APBA2_1, Q99767
# Assay: holdup assay
# Parameters: key: below the threshold = too weak to quantify, mostly under pKd 3.1 to 4
# Conditions: plain residues with an end cap or a label only (N-terminal biotin on a linker: ado-ado)
row,Binder,pKd
1,"DDASLPVSDV [PLEKHA1, Q9HB21]",below the threshold
2,"ELSATVTTDC [TRIP6, Q15654]",below the threshold

# Target: T2, APBA3_1, O96018
# Assay: holdup assay
# Parameters: key: below the threshold = too weak to quantify, mostly under pKd 3.1 to 4
# Conditions: plain residues with an end cap or a label only (N-terminal biotin on a linker: ado-ado)
row,Binder,pKd
1,"DDASLPVSDV [PLEKHA1, Q9HB21]",below the threshold
2,"ELSATVTTDC [TRIP6, Q15654]",below the threshold

# Target: T3, ARHGEF11, O15085
# Assay: holdup assay
# Parameters: key: below the threshold = too weak to quantify, mostly under pKd 3.1 to 4
# Conditions: plain residues with an end cap or a label only (N-terminal biotin on a linker: ado-ado)
row,Binder,pKd
1,"DDASLPVSDV [PLEKHA1, Q9HB21]",4.22
2,"ELSATVTTDC [TRIP6, Q15654]",4.61

# Target: T4, CARD11, Q9BXL7
# Assay: holdup assay
# Parameters: key: below the threshold = too weak to quantify, mostly under pKd 3.1 to 4
# Conditions: plain residues with an end cap or a label only (N-terminal biotin on a linker: ado-ado)
row,Binder,pKd
1,"DDASLPVSDV [PLEKHA1, Q9HB21]",below the threshold
2,"ELSATVTTDC [TRIP6, Q15654]",below the threshold

# Target: CASK, O14936
# Sequence (O14936 487-570): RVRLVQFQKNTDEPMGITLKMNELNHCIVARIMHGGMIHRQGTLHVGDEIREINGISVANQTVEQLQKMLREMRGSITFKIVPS
# Assay: holdup assay
# Parameters: key: below the threshold = too weak to quantify, mostly under pKd 3.1 to 4
# Conditions: plain residues with an end cap or a label only (N-terminal biotin on a linker: ado-ado)
row,Binder,pKd
1,"DDASLPVSDV [PLEKHA1, Q9HB21]",below the threshold
2,"ELSATVTTDC [TRIP6, Q15654]",below the threshold

# Target: T5, FRMPD1, Q5SYB0
# Assay: holdup assay
# Parameters: key: below the threshold = too weak to quantify, mostly under pKd 3.1 to 4
# Conditions: plain residues with an end cap or a label only (N-terminal biotin on a linker: ado-ado)
row,Binder,pKd
1,"DDASLPVSDV [PLEKHA1, Q9HB21]",below the threshold
2,"ELSATVTTDC [TRIP6, Q15654]",below the threshold

# Target: FRMPD2_1, Q68DX3
# Sequence (Q68DX3 770-861): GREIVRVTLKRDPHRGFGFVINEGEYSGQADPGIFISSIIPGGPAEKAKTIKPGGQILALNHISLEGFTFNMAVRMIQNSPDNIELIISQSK
# Assay: holdup assay
# Parameters: key: below the threshold = too weak to quantify, mostly under pKd 3.1 to 4
# Conditions: plain residues with an end cap or a label only (N-terminal biotin on a linker: ado-ado)
row,Binder,pKd
1,"DDASLPVSDV [PLEKHA1, Q9HB21]",below the threshold
2,"ELSATVTTDC [TRIP6, Q15654]",below the threshold

# Target: GRIP2_4, Q9C0E4
# Sequence (Q9C0E4 446-548): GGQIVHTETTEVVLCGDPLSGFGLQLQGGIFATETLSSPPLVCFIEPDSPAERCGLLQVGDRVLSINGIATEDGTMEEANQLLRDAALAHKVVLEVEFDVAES
# Assay: holdup assay
# Parameters: key: below the threshold = too weak to quantify, mostly under pKd 3.1 to 4
# Conditions: plain residues with an end cap or a label only (N-terminal biotin on a linker: ado-ado)
row,Binder,pKd
1,"DDASLPVSDV [PLEKHA1, Q9HB21]",below the threshold
2,"ELSATVTTDC [TRIP6, Q15654]",below the threshold

# Target: GRIP2_7, Q9C0E4
# Sequence (Q9C0E4 934-1023): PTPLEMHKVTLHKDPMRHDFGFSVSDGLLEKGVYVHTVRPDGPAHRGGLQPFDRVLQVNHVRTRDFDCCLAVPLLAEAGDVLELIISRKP
# Assay: holdup assay
# Parameters: key: below the threshold = too weak to quantify, mostly under pKd 3.1 to 4
# Conditions: plain residues with an end cap or a label only (N-terminal biotin on a linker: ado-ado)
row,Binder,pKd
1,"DDASLPVSDV [PLEKHA1, Q9HB21]",below the threshold
2,"ELSATVTTDC [TRIP6, Q15654]",below the threshold

# Target: T6, HTRA3, P83110
# Assay: holdup assay
# Parameters: key: below the threshold = too weak to quantify, mostly under pKd 3.1 to 4
# Conditions: plain residues with an end cap or a label only (N-terminal biotin on a linker: ado-ado)
row,Binder,pKd
1,"DDASLPVSDV [PLEKHA1, Q9HB21]",below the threshold
2,"ELSATVTTDC [TRIP6, Q15654]",4.04

# Target: MAGI1_1, Q96QZ7
# Sequence (Q96QZ7 1-106): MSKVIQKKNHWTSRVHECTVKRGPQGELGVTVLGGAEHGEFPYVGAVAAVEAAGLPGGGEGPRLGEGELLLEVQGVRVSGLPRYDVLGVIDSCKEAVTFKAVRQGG
# Assay: holdup assay
# Parameters: key: below the threshold = too weak to quantify, mostly under pKd 3.1 to 4
# Conditions: plain residues with an end cap or a label only (N-terminal biotin on a linker: ado-ado)
row,Binder,pKd
1,"DDASLPVSDV [PLEKHA1, Q9HB21]",below the threshold
2,"ELSATVTTDC [TRIP6, Q15654]",3.82

# Target: MAGI2_6, Q86UL8
# Sequence (Q86UL8 1141-1229): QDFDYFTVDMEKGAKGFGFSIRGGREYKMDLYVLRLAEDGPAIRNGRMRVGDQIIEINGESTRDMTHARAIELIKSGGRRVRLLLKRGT
# Assay: holdup assay
# Parameters: key: below the threshold = too weak to quantify, mostly under pKd 3.1 to 4
# Conditions: plain residues with an end cap or a label only (N-terminal biotin on a linker: ado-ado)
row,Binder,pKd
1,"DDASLPVSDV [PLEKHA1, Q9HB21]",5.09
2,"ELSATVTTDC [TRIP6, Q15654]",4.24

# Target: T7, MPP6, Q9NZW5
# Assay: holdup assay
# Parameters: key: below the threshold = too weak to quantify, mostly under pKd 3.1 to 4
# Conditions: plain residues with an end cap or a label only (N-terminal biotin on a linker: ado-ado)
row,Binder,pKd
1,"DDASLPVSDV [PLEKHA1, Q9HB21]",below the threshold
2,"ELSATVTTDC [TRIP6, Q15654]",below the threshold

# Target: T8, MPP7, Q5T2T1
# Assay: holdup assay
# Parameters: key: below the threshold = too weak to quantify, mostly under pKd 3.1 to 4
# Conditions: plain residues with an end cap or a label only (N-terminal biotin on a linker: ado-ado)
row,Binder,pKd
1,"DDASLPVSDV [PLEKHA1, Q9HB21]",below the threshold
2,"ELSATVTTDC [TRIP6, Q15654]",3.65

# Target: T9, NHERF3_4, Q5T2W1
# Assay: holdup assay
# Parameters: key: below the threshold = too weak to quantify, mostly under pKd 3.1 to 4
# Conditions: plain residues with an end cap or a label only (N-terminal biotin on a linker: ado-ado)
row,Binder,pKd
1,"DDASLPVSDV [PLEKHA1, Q9HB21]",below the threshold
2,"ELSATVTTDC [TRIP6, Q15654]",below the threshold

# Target: T10, PDZD7_3, Q9H5P4
# Assay: holdup assay
# Parameters: key: below the threshold = too weak to quantify, mostly under pKd 3.1 to 4
# Conditions: plain residues with an end cap or a label only (N-terminal biotin on a linker: ado-ado)
row,Binder,pKd
1,"DDASLPVSDV [PLEKHA1, Q9HB21]",5.22
2,"ELSATVTTDC [TRIP6, Q15654]",3.8

# Target: T11, RHPN1, Q8TCX5
# Assay: holdup assay
# Parameters: key: below the threshold = too weak to quantify, mostly under pKd 3.1 to 4
# Conditions: plain residues with an end cap or a label only (N-terminal biotin on a linker: ado-ado)
row,Binder,pKd
1,"DDASLPVSDV [PLEKHA1, Q9HB21]",4.46
2,"ELSATVTTDC [TRIP6, Q15654]",4.32

# Target: T12, SNTA1, Q13424
# Assay: holdup assay
# Parameters: key: below the threshold = too weak to quantify, mostly under pKd 3.1 to 4
# Conditions: plain residues with an end cap or a label only (N-terminal biotin on a linker: ado-ado)
row,Binder,pKd
1,"DDASLPVSDV [PLEKHA1, Q9HB21]",4.44
2,"ELSATVTTDC [TRIP6, Q15654]",3.92

# Target: T13, SNTG1, Q9NSN8
# Assay: holdup assay
# Parameters: key: below the threshold = too weak to quantify, mostly under pKd 3.1 to 4
# Conditions: plain residues with an end cap or a label only (N-terminal biotin on a linker: ado-ado)
row,Binder,pKd
1,"DDASLPVSDV [PLEKHA1, Q9HB21]",5.09
2,"ELSATVTTDC [TRIP6, Q15654]",3.48

# Target: TJP1_2, Q07157
# Sequence (Q07157 181-274): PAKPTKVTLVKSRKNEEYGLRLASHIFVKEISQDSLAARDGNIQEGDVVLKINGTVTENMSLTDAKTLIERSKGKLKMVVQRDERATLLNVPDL
# Assay: holdup assay
# Parameters: key: below the threshold = too weak to quantify, mostly under pKd 3.1 to 4
# Conditions: plain residues with an end cap or a label only (N-terminal biotin on a linker: ado-ado)
row,Binder,pKd
1,"DDASLPVSDV [PLEKHA1, Q9HB21]",below the threshold
2,"ELSATVTTDC [TRIP6, Q15654]",4.06

# Target: T14, TJP3_3, O95049
# Assay: holdup assay
# Parameters: key: below the threshold = too weak to quantify, mostly under pKd 3.1 to 4
# Conditions: plain residues with an end cap or a label only (N-terminal biotin on a linker: ado-ado)
row,Binder,pKd
1,"DDASLPVSDV [PLEKHA1, Q9HB21]",below the threshold
2,"ELSATVTTDC [TRIP6, Q15654]",below the threshold

# Target: T15, TX1BP3, O14907
# Assay: holdup assay
# Parameters: key: below the threshold = too weak to quantify, mostly under pKd 3.1 to 4
# Conditions: plain residues with an end cap or a label only (N-terminal biotin on a linker: ado-ado)
row,Binder,pKd
1,"DDASLPVSDV [PLEKHA1, Q9HB21]",3.84
2,"ELSATVTTDC [TRIP6, Q15654]",3.48
